# According to US20250136709A1 (DEVELOPMENT CENTER FOR BIOTECHNOLOGY, published 2025):
# T1: human CD73 (human, UniProt P21589 27-549)
# T1 construct: the antigen of the Biacore assay is only called human CD73 antigen; also called human CD73 antigen; Recombinant Human CD73-6xHis
# T1 sequence: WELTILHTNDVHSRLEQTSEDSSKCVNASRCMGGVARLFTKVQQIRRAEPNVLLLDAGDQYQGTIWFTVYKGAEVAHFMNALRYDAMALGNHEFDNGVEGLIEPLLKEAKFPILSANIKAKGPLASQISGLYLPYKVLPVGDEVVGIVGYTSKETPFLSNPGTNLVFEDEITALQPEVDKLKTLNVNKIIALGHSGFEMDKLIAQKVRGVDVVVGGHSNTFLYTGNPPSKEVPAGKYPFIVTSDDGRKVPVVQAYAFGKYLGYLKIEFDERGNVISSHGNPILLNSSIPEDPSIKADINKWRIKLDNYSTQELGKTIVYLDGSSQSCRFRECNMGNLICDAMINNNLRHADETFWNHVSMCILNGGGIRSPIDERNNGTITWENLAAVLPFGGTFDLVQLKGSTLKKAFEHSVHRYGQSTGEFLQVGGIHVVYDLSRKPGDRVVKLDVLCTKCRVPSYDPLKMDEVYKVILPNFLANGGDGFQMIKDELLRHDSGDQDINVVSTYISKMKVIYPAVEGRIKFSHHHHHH
# T2: human CD73 on cells (MDA-MB-231, Calu-1, KLM-1, human CD4+ T-cells) (human, UniProt P21589 27-549)
# T2 sequence: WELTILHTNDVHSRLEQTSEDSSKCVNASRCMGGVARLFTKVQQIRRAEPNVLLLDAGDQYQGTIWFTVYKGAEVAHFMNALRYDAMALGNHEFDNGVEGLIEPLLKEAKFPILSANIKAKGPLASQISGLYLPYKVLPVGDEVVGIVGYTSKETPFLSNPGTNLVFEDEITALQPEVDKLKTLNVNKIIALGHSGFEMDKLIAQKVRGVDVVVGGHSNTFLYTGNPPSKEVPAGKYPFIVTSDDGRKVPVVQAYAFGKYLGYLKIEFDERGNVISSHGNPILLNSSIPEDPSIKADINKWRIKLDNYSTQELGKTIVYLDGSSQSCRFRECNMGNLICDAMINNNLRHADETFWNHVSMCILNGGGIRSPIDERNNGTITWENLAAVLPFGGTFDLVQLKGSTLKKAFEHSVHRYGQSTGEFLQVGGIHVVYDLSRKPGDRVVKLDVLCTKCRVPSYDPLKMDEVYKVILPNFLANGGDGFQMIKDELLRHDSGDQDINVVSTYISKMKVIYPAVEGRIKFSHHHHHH
# T3: mCD73hF4 (human; mouse, UniProt Q61503 307-551, limits assumed)
# T3 construct: Mouse-human domain swapping protein, expressed in F293 cells
# T3 sequence: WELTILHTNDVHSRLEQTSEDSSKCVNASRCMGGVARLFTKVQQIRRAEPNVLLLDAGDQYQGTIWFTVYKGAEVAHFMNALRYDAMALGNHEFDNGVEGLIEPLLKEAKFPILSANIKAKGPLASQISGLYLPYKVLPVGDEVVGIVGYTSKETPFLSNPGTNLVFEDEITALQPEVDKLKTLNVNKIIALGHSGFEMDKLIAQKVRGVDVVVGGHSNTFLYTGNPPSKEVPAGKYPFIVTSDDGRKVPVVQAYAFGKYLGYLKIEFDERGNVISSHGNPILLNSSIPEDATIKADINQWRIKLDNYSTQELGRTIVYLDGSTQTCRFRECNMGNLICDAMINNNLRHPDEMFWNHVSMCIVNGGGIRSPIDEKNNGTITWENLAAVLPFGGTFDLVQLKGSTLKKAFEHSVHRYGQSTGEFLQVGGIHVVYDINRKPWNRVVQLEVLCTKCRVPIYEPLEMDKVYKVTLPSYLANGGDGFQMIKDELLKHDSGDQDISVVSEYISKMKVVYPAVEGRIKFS
# T4: mCD73hF1-K206A-N211G (mouse; human, UniProt Q61503 29-270; Q61503 307-551)
# T4 chain: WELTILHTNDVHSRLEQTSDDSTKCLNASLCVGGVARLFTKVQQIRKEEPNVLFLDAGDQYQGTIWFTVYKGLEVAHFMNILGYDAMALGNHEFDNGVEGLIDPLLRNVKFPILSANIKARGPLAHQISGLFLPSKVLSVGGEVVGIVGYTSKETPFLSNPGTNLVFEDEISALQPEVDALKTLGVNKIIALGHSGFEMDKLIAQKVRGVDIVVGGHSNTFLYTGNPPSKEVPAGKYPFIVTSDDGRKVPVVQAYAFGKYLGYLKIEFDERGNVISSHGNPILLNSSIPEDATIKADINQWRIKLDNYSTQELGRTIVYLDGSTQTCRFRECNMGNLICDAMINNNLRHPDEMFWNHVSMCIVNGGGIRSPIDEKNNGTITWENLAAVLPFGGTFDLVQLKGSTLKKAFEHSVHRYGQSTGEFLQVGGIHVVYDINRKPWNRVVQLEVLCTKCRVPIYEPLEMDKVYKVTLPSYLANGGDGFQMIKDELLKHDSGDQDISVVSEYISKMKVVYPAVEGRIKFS
# Experiments:
# [1] = molecular target: mCD73hF1-R297K (mouse; human) (UniProt Q61503); assay: ELISA
# [2] = molecular target: mouse CD73-D296E-K297R (mouse) (UniProt Q61503); assay: ELISA
# human CD73 [3] = molecular target: T1, human CD73; assay: Biacore SPR
# [4] = molecular target: T2, human CD73 on cells (MDA-MB-231, …); assay: cell-based or functional assay
# human CD73 [5] = molecular target: T1, human CD73; assay: Biacore SPR; remark: listed apart in the source
# mCD73hF1 (mouse; human) [6] = molecular target: mCD73hF1 (mouse; human) (UniProt Q61503); assay: ELISA, antibody titrated; panel mCD73 hF1
# mCD73hF2 (mouse; human) = mCD73hF2 (mouse; human) (UniProt Q61503); assay: ELISA, antibody titrated; panel mCD73 hF2
# mCD73hF3 (mouse; human) = mCD73hF3 (mouse; human) (UniProt Q61503); assay: ELISA, antibody titrated; panel mCD73 hF3
# [7] = molecular target: mCD73hF1-S269A (mouse; human) (UniProt Q61503); assay: ELISA, 10H5 titrated on the mutant protein
# [8] = molecular target: mouse CD73-D296E-K297R (mouse) (UniProt Q61503); assay: ELISA, 10H5 titrated on the mutant protein
# mCD73hF1 (mouse; human) [9] = molecular target: mCD73hF1 (mouse; human) (UniProt Q61503); assay: ELISA, antibody titrated; right panel mCD73 hF1
# mCD73hF4 = molecular target: T3, mCD73hF4; assay: ELISA, antibody titrated; panel mCD73 hF4
# mCD73hF1-K206A-N211G = molecular target: T4, mCD73hF1-K206A-N211G; assay: ELISA, antibody titrated; panel mCD73 hF1 K206A N211G
binder,measurement,setting,value
"10H5 antibody (antibody, V domains shown, Mouse scFv-derived variable domains put into an expression vector with CH and CL chains (full-length chimeric antibody); also called 10H5 chimeric; 10H5 MM) VH: QVKLQQSGAELVKPGASVKISCKASGYVFSSYWINWVKQRPGKGLEWIGQIYPGDGNTNYNRNFKGKATLTADKSSSTAYMQLSSLTSEDSAVYFCAGFADWGQGTTVTVSS VL: DIELTQSPSSLSASLGERVSLTCRASQDIGDSLIWLQQEPDGTIKRLIYATSSLDSGVPKRFSGSRSGTSYSLTISSVEAEDAATYYCQQYSGYPLTFGSGTKLEIK",binding affinity relative to that to mCD73hF1,[1],0.1 fold
same,Kd,[2],0.098 nM
same,Kd,human CD73 [3],0.683 nM
same,"AMP concentration in supernatant by LC/MS, MDA-MB-231 cells, 400 µM AMP, 10 nM antibody, 6 hours",[4],347 µM
same,"AMP concentration in supernatant by LC/MS, MDA-MB-231 cells, 400 µM AMP, 10 nM antibody, 24 hours",[4],290 µM
same,"AMP consumption, Calu-1 cells, 10 nM antibody, 24 hrs",[4],< 20%
same,"AMP consumption, MDA-MB-231 cells, 10 nM antibody, 6 hr",[4],< 10%
same,"AMP consumption, MDA-MB-231 cells, 10 nM antibody, 24 h",[4],< 50%
same,koff,human CD73 [5],5.78e-05 s⁻¹
same,kon,human CD73 [5],84600 M⁻¹ s⁻¹
same,EC50 (read off the curve),mCD73hF1 (mouse; human) [6],0.3 nM
same,EC50 (read off the curve),mCD73hF2 (mouse; human),0.2 nM
same,EC50 (read off the curve),mCD73hF3 (mouse; human),0.2 nM
same,EC50 (read off the curve),[7],0.5 nM
same,EC50 (read off the curve),[8],0.2 nM
same,EC50 (read off the curve),mCD73hF1 (mouse; human) [9],0.3 nM
same,EC50 (read off the curve),mCD73hF4,~0.2 nM
same,EC50 (read off the curve),mCD73hF1-K206A-N211G,~0.2 nM
